{"source": "paper PMC4092071", "assay_in_all_cases": "equilibrium inhibitor binding assay (free trypsin by residual activity on a fluorogenic substrate); BPTI variants (0-100 pM) and trypsin (50 pM) in solution, 15 h at 22°C, 0.1 M Tris-HCl (pH 8.0), 1 mM CaCl2, 0.05% Tween 20; free trypsin from cleavage of Z-Gly-Pro-Arg-AMC; free protease against total inhibitor fitted with a quadratic equation", "key": {"[1]": {"biological_target": "non-sulfated human anionic trypsin (human) (UniProt P07478)"}, "[2]": {"biological_target": "sulfated human anionic trypsin (human) (UniProt P07478)"}, "[3]": {"biological_target": "non-sulfated human cationic trypsin (human)"}, "[4]": {"biological_target": "sulfated human cationic trypsin (human)"}}, "data": [{"substance": "BPTI variant carrying Arg at P2′ (P1′ Ala, P3′ Asp, P4′ Ile, P19′ Val) (designed binder)", "values": [{"measurement": "Kd", "setting": "[1]", "result": 0.7, "unit": "pM"}, {"measurement": "Kd", "setting": "[2]", "result": 0.4, "unit": "pM"}, {"measurement": "Kd", "setting": "[3]", "result": 0.9, "unit": "pM"}, {"measurement": "Kd", "setting": "[4]", "result": 1, "unit": "pM"}]}, {"substance": "BPTI variant carrying Ala at P2′ (P1′ Ala, P3′ Asp, P4′ Ile, P19′ Val) (designed binder)", "values": [{"measurement": "Kd", "setting": "[1]", "result": 0.3, "unit": "pM"}, {"measurement": "Kd", "setting": "[2]", "result": 2.2, "unit": "pM"}, {"measurement": "Kd", "setting": "[3]", "result": 0.7, "unit": "pM"}, {"measurement": "Kd", "setting": "[4]", "result": 7.9, "unit": "pM"}]}, {"substance": "BPTI variant carrying Leu at P2′ (P1′ Ala, P3′ Asp, P4′ Ile, P19′ Val) (designed binder)", "values": [{"measurement": "Kd", "setting": "[1]", "result": 1.2, "unit": "pM"}, {"measurement": "Kd", "setting": "[2]", "result": 4, "unit": "pM"}, {"measurement": "Kd", "setting": "[3]", "result": 1.2, "unit": "pM"}, {"measurement": "Kd", "setting": "[4]", "result": 13.4, "unit": "pM"}]}, {"substance": "BPTI variant carrying Lys at P2′ (P1′ Ala, P3′ Asp, P4′ Ile, P19′ Val) (designed binder)", "values": [{"measurement": "Kd", "setting": "[1]", "result": 1.6, "unit": "pM"}, {"measurement": "Kd", "setting": "[2]", "result": 1.3, "unit": "pM"}, {"measurement": "Kd", "setting": "[3]", "result": 3.9, "unit": "pM"}, {"measurement": "Kd", "setting": "[4]", "result": 3.3, "unit": "pM"}]}, {"substance": "BPTI variant carrying Ile at P2′ (P1′ Ala, P3′ Asp, P4′ Ile, P19′ Val) (designed binder)", "values": [{"measurement": "Kd", "setting": "[1]", "result": 0.3, "unit": "pM"}, {"measurement": "Kd", "setting": "[2]", "result": 1.3, "unit": "pM"}, {"measurement": "Kd", "setting": "[3]", "result": 0.5, "unit": "pM"}, {"measurement": "Kd", "setting": "[4]", "result": 3.2, "unit": "pM"}]}]}
